In data set [1] the target is histone H3K27me3 peptide (Homo sapiens) (UniProt P68431). As to conditions: cited from earlier work.
A further data set has as its target T1, CBX8 chromodomain (CD) (UniProt Q9HC52 8-61).
T1 sequence: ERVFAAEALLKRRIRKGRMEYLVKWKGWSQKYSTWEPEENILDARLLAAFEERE
Nature of the data set: NMR titration (1H-15N HSQC); authors' estimate (likely); saturation at ~1:1, curved CSPs; EMSA: 25 mM phosphate pH 6.8, 25 mM NaCl, 1 mM EDTA, 1 mM DTT, 15 min on ice, 6% gel in 0.4x TBE; NMR: 40 mM phosphate pH 6.8, 100 mM NaCl, 25 C. As to conditions: protein: recombinant; tags: GST removed by TEV; 15N-labelled for NMR; blunt.

Data set [2] has as its target T2, CBX8 chromodomain (residues 8-61) (UniProt Q9HC52 8-61).
T2 construct: CBX8 chromodomain, residues 8-61; Uniformly 15N-labelled for the NMR titrations; The methods name two chromodomain constructs (Addgene 62514 and GST-CBX8 8-61 in pGSTag); the purification that is described is that of the GST fusion cleaved with TEV; also called CD; CBX8 CD; source: E. coli BL21 (DE3), purified (glutathione agarose, TEV cleavage, cation exchange, Superdex 75)
T2 sequence (looked up): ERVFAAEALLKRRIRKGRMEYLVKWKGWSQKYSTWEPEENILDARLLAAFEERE
Kind of data set: NMR titration; 1H-15N HSQC; histone peptide added to 15N-CD pre-bound to an 11 bp DNA (CD:DNA 1:1). As to conditions: both partners purified.

In data set [3] the target is T2, CBX8 chromodomain (residues 8-61). Nature of the data set: NMR titration; 1H-15N HSQC of 0.05-0.10 mM 15N-CBX8 CD with increasing molar ratios of unlabelled histone peptide; 25 °C; 100 mM NaCl, 40 mM phosphate pH 6.8; CSPs fit to a single-site model with ligand depletion, global Kd as the average over perturbed resonances. As to conditions: both partners purified.

Ends that are not written are not given here. trimethyl = trimethyl-lysine

For CBX8 chromodomain (from UniProt Q9HC52), the Kd in data set [1] was above 500 µM.

B1: 11 bp DNA (dsDNA)
DNA 1: GCGTTTAAGCG
DNA 2: CGCTTAAACGC
B1: the Kd with CBX8 chromodomain (CD) was below 10 µM.

Regarding KAARK(trimethyl)SAPATGG [H3K27me3 (23-34) histone peptide], the Kd in data set [2] worked out at 200 µM; in data set [3], 700 µM.

The term Kd denotes the equilibrium constant for the complex coming apart.

(Values after article PMC6411926, “Engagement of DNA and H3K27me3 by the CBX8 chromodomain drives chromatin association” (Nucleic Acids Research, 2018).)
